Reference: the supplement of paper PMC9170038

Test system: MS2 coat protein
Assay: apparent KD of MS2 coat protein; higher = weaker reporter binding
Conditions: Eterna round: R107
In short: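 Apparent KD stands for the median, per design, of fits to normalised cluster binding curves. The curves came from titrating on-chip-transcribed RNA switches on Illumina sequencing clusters with SNAP-549-labelled MS2 coat protein, twofold from 0.7 or 1.5 nM to 3 µM. Buffer was 100 mM Tris-HCl pH 7.5, 80 mM KCl, 4 mM MgCl2, without or with constant ligand.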

[1] = input ligand: theophylline 20 uM
[2] = input ligand: tryptophan 2.4 mM
[3] = input ligand: theophylline 2 mM

Sequence	apparent KD of MS2 coat protein (input ligand: arginine 13.2 mM) [nM]	apparent KD of MS2 coat protein [1] [nM]	apparent KD of MS2 coat protein [2] [nM]	apparent KD of MS2 coat protein (input ligand: none) [nM]	apparent KD of MS2 coat protein [3] [nM]
AAGGUAUCACAGACAUGGGUGUACUGUGAUACCAGCUAGGAAACUAGCCCUUGGCAGCACAUGAGGAUCACCCAUGUAAGAAUAA [(T)'-(M)'-(T1)-(T2)-(M1)-(M2)_Design4_2/19/17]	34	94.9	53.8		
AUGUCGUUGAAUAUAGCGGCUUGGAGUGAUACCAGAAUGAUCCAAUUCCCUUGGCAGCAUUACAUGAGGAUCACCCAUGUUCCAG [SSTheo A #23]	24.1	55.5	48.6	37.1	89.6
ACAUGAGGAUCACCCAUGUAUGACUAUCCUCGAGGACCGGUACGGCCGCCACUCGAAGGAGUGGCUCGCGAGUGCGCACUUGCGA [5' end]	10.9	19.2	12.1	11.9	11.8
ACAUGAGGAUCACCCAUGUGAAGGCACGAUACCAGCUGAUCCCGUGGCCCUUGGCAGCGUCCGGUGUGGUCCGGCGGGUGGGACG [bbvmullin]	25.8	75.4	24.4	29	50.3
UGAUAUAGGGAGCCGUAUCAGAAACCUGAAGGAGCGCCGGAAAAGGCAGGUAGGUCGCGGGAACAUGAGGAUCACCCAUGUAUUC [dancer_small]	17.4	21.2	18.3	19	19.2
GGUCUGAAAACCGAUCAAAGAUCGGAAGAUACCAGAGGGUGAUCCCUCCCUUGGCAGCUUCACAUGAGGAUCACCCAUGUAGACC [Omei inspired #BothOrNeither]	29.3	188	82.5		
GGGAGAUGAAUAGAAUGAGAUGACACAGAAGGAGCGUGAAUUAACACAGGUAGGUCGCUGACAACAUGAGGAUCACCCAUGUAUU [Same State Arginine A GF3]	18.1	21.3	18.9	15.2	19.5
AACGAGUGGCGGCCAUUGGGUGAUCCUCUACGAGGACCGGUACGGCCGCCACUCGAUAACAUGAGGAUCACCCAUGUGCCGAUAA [|T'-M'-Trp-Ms2|_Design10b]	42.3	164			240
GUGUUAUGGUCGGCCGCCACUCUGACAUGAGGAUCACCCAUGUUGUACAUGAGGAUCACCCAUGUGAGGACCGGGACACGUGCGA [Exclusion Tryptophan B GF10]	203	363			476
CAUGUUAGGGCGGCCGCCACUGUGGCUACGGUACAUGAGGAUCACCCAUGUUUGUGGUUGAUCUACAGGACCGGGCCCUGACACG [Erarusge]	127	578	209	187	679
ACAUGAGGAUCACCCAUGUAAUACCGGGAAGGAGCGCGUAAGGACGCAGGUAGGUCGCUCGGCGUCCGGCCGCAAGGCCGGACGA [#1 Same State - Arginine A Attempt #12 (HarryS)]	21	24.3	14.7	14.4	10.7
CACAGUGCGAAUUUGAAUUCGCACGAUCCUCGAGGACCGGUACGGCCGCCACUCGCGCGGGUCGUACAUGAGGAUCACCCAUGUC [Quermavebe]	25	233			1190
GAUAUAACAAAAGUUGUAUCAGUGGGUGAACGAGGACCGGUACGGCCGCCACUCGGACAUGAGGAUCACCCAUGUCCAUGUGAAA [AstrosExyTryA#18]	11.6	23.1	44.3	14.7	19.8
AACAUGAGGAUCACCCAUGUCCUCGUGUACCGAGGACCGGUACGGCCGCCACUCGGUUCUCGCGAGGAUGGUCAAAGACUAUCCA [Omei Trp A SS B v4]	202	643			1010
UGACAUUGCUCAGAUACCAGACAUGAGGAUCACCCAUGUGCCAAAUACGUACAAAUAAAUGUCCCUUGGCAGCUGAGCAAUGUCU [TheoBX 12 #MS2Left #Theo2]	16.2	22.2	14.4		
UGGUUUCGGUCAAUCACCGGUCCCUGGGAAGGAGCGGACUCAUGUCCAGGUAGGUCGCCCAGACAUGAGGAUCACCCAUGUGACA [Tiusdiin]	32.5	409	24.1	174	142
UAUCCACAUGAGGAUCACCCAUGUUAGGAAGGAGCGGUGGAUGCACCAGGUAGGUCGCCUAGCUGAGGACUGUCGGUGGAUUCGU [Exclusion - Arginine A (Freestyle 21)]	56.5	92.1	94.9	86.5	131
ACAUGAGGAUCACCCAUGUUCCUCGCCGAUACCAGUGAAGAAGAACGCCCUUGGCAGCGGAAAGAAUAUUUUGGAGAUGAGGUAU [6.W]	120	219	165		
GGAUAGGACAGAAGGAGCGUGAGAUGCAAAGCAUCAUUCCUCACAUGAGGAUCACCCAUGUCACAGGUAGGUCGCUGUCCUAUCG [ArgBX 4]	78.3	119	112	95.1	110
